Assay results as given in publication PMC3629177 (PLoS ONE, 2013).

B1: HuMab 37_(L-63) (cloned, IgG1) (antibody, V domains shown)
VH: EVQLVQSGGGLVHPGGSLRLSCAGSGFTFSRYALHWVRQAPGKGLEWVSAIGIGGGTFYADSVKGRFTISRDNAKNSLYLQMNSLRAEDMAVYYCARDTYYDFFDAFDIWGQGTMVTVSS
VL: DIQMTQSPSSLSASVGDRVTITCRASQGISSWLAWYQQKPEKAPKSLIYAASSLQSGVPSRFSGSGSGTDFTLTISSLQPEDFATYYCQQYDSYPLTFGGGTKVEIK
B2: HuMab 11_(L-80) (antibody, V domains shown)
VH: QVQLVESGGGVVQPGRSLRLSCAASGFTFSNYGIHWVRQAPGKGLEWVAIIWHDGSNSYYVDSVKGRFTMSRDNSKNTVYLQMNSLRAEDTAVYFCARIIGGAFDIWGQGTMVTVSS
VL: DIQMTQSPSSLSASVGDRVTITCRASQGISSWLAWYQQKPEKAPKSLIYAASSLQSGVPSRFSGSGSGTDFTLTISSLQPEDFATYYCQQYNSYPITFGQGTRLEIK
B3: HuMab 33_(L-112) (antibody, V domains shown)
VH: EVQLVESGGGLVQPGGSLRLSCAASGFTFSRYWMSWVRQAPGKGLEWMANIKQDGSETHYVDSVKGRFTISRDNAKNSLYLQMNSLRAEDTAVYYCAIGDYWGQGTLVTVSS
VL: DIQMTQSPSSLSASVGDRVTITCRASQDISSWLAWYQQKPEKAPKSLIYAASSLQSGVPSRFSGSGSGTDFTLTISSLQPEDFATYYCQQYKSYPLTFGGGTKVEIK
B4: HuMab 56c (antibody, V domains shown)
VH: QVQVVQSGAEVKKPGSSVKVSCKASGGTFSSYAISWVRQAPGQGLEWMGRIIPILGTAKYAQKFQGRVTIIADKSTSTAYMELSSLRSEDTAVYYCARDQDYYGMDVWGQGTTVTVSS
VL: DIQMTQSPSSVSASVGDRVTITCRASQGISSWLAWYQHKPGKAPKLLIYAASSLQSGVPSRFSGSGSGTDFTLTISSLQPEDFATYYCQQTNNFPWTFGQGTKVEIK
B5: HuMab 16_(L-40) (antibody, V domains shown)
VH: EVQLVQSGGGLGHPGGSLRLSCAGSGFTFSSYSMHWLRQAPGKGLKWVSAIGTAGGTYYADSVKGRFTISRDNAKNSFYLQMNSLRAEDMAVYYCAREYFFGSGNYGYWGQGTLVTASS
VL: not shown
B6: HuMab 22c (antibody, V domains shown)
VH: QVQLVESGGGVVQPGRSLRLSCAASGFTFRSYGMHWVRQAPGKGLEWVTLIWYDGSNKYYADSVKGRFTISRDNSKNTLYLQMNSLRVEDTAVYYCAREGFNWDAFDIWGQGTMVTVSS
VL: EIVLTQSPGTLSLSPGERATLSCRASQSVRISYLAWYQQKPGQAPRLLIYGTFSRATGIPDRFSGSGSGTDFTLTISRLEPEDFAVYYCQQYGSSMYTFGQGTKLEIK
B7: HuMab 155c (antibody, V domains shown)
VH: EVQLVQSGAEVKKPGESLKISCKGSGYSFTSYWIGWVRQMPGKGLEWMGIIYPGDSDTRYSPSFQGQVTISADKSISTAYLQWSSLKASDTAMYYCARQGSGWYGNYFDYWGQGTLVTVSS
VL: EIVLTQSPGTLSLSPGERATLSCRASQSFSRGYLAWYQQKPGQAPRLLIYGASSRVTGIPDRFSGSGSGTDFTLTISRLEPEDFAVYYCQQYDSSPYTFGQGTKLEIK

What follows are binders tested against T1, hSOD1-A4V-myc (Homo sapiens, UniProt P00441, point mutant) (assay: co-IP; soluble lysate of transfected HEK-293T/17 cells (PBS + 0.1% Triton X-100) immunoprecipitated with 2 µg HuMab and protein A sepharose; immunoblot with anti-myc 9E10). Conditions: one partner purified.
T1 construct: human SOD1 with the ALS mutation A4V; source: HEK-293T/17, transiently transfected (pcDNA), in lysate; not shown: myc, C-terminal, kept

Binding result, binds:
B1, B2, B3, B4, B5, B6, B7
